Results as given in publication PMC11659164, “Inceptor binds to and directs insulin towards lysosomal degradation in β cells” (Nature Metabolism, 2024).

Legend:
[1] = biological target: His-tagged inceptor ectodomain (human) (UniProt Q6UXG2); test: native MS; charge detection mass spectrometry (CDMS), Orbitrap Q Exactive UHMR; inceptor ECD-His (5 µM) alone or with insulin at 1:6 and 1:20, or with proinsulin; 150 mM ammonium acetate, pH 3–7; 37 °C for 30 min
[2] = biological target: inceptor–HaloTag fusion protein (FRET experiments, INS-1E cells) (human) (UniProt Q6UXG2); test: FRET or BRET; live INS-1E cells overexpressing inceptor–HaloTag labelled with TMR; 100 nmol/l INS-630 and 0, 10, 100 and 1,000 nmol/l proinsulin in the medium for 40 min; corrected FRET efficiency by confocal imaging
[3] = biological target: the molecule itself; test: native MS; charge detection mass spectrometry (CDMS), Orbitrap Q Exactive UHMR; inceptor ECD-His (5 µM) alone or with insulin at 1:6 and 1:20, or with proinsulin; 150 mM ammonium acetate, pH 3–7; 37 °C for 30 min

Molecule: bovine proinsulin (ligand)
- N for each inceptor dimer [1]: 1
- stoichiometry N [1]: 1

Molecule: proinsulin (unlabelled, added to the medium in the FRET experiments) (ligand)
- reduction of the FRET signal of inceptor to INS-630 at a 1:10 molar ratio of proinsulin to insulin [2]: 50%

B1: His-tagged inceptor ectodomain (domain or fragment, human, UniProt Q6UXG2 42-910, looked up)
chain: TGPELHACKESEYHYEYTACDSTGSRWRVAVPHTPGLCTSLPDPIKGTECSFSCNAGEFLDMKDQSCKPCAEGRYSLGTGIRFDEWDELPHGFASLSANMELDDSAAESTGNCTSSKWVPRGDYIASNTDECTATLMYAVNLKQSGTVNFEYYYPDSSIIFEFFVQNDQCQPNADDSRWMKTTEKGWEFHSVELNRGNNVLYWRTTAFSVWTKVPKPVLVRNIAITGVAYTSECFPCKPGTYADKQGSSFCKLCPANSYSNKGETSCHQCDPDKYSEKGSSSCNVRPACTDKDYFYTHTACDANGETQLMYKWAKPKICSEDLEGAVKLPASGVKTHCPPCNPGFFKTNNSTCQPCPYGSYSNGSDCTRCPAGTEPAVGFEYKWWNTLPTNMETTVLSGINFEYKGMTGWEVAGDHIYTAAGASDNDFMILTLVVPGFRPPQSVMADTENKEVARITFVFETLCSVNCELYFMVGVNSRTNTPVETWKGSKGKQSYTYIIEENTTTSFTWAFQRTTFHEASRKYTNDVAKIYSINVTNVMNGVASYCRPCALEASDVGSSCTSCPAGYYIDRDSGTCHSCPTNTILKAHQPYGVQACVPCGPGTKNNKIHSLCYNDCTFSRNTPTRTFNYNFSALANTVTLAGGPSFTSKGLKYFHHFTLSLCGNQGRKMSVCTDNVTDLRIPEGESGFSKSITAYVCQAVIIPPEVTGYKAGVSSQPVSLADRLIGVTTDMTLDGITSPAELFHLESLGIPDVIFFYRSNDVTQSCSSGRSTTIRVRCSPQKTVPGSLLLPGTCSDGTCDGCNFHFLWESAAACPLCSVADYHAIVSSCVAGIQKTTYVWREPKLCSGGISLPEQRVTICKTIDFWLK
notes: signal peptide in the construct; ectodomain of human inceptor (KIAA1324), Uniprot entry Q6UXG2, residues 1–910; Seen as monomer and, prevalently, as dimer by CDMS; also called inceptor ECD-His; inceptor ECD-6×His; source: HEK293 (pCDNA3-inceptor ECD-6×His), purified
- stoichiometry N [3]: 2
